From paper PMC3444823

Key:
[1] = target: truncated HIV-1 gp120MS (residues 83-492, intact variable loops) (HIV-1 (clade A isolate)); assay: SEC
[2] = target: truncated HIV-1 gp120SC (residues 83-492, intact variable loops) (HIV-1 (clade B isolate)); assay: SEC
[3] = target: single-chain fusion protein of CD4i antibody domain m36.4 with gp120MS (human | HIV-1 (clade A isolate)); assay: SPR
[4] = target: single-chain fusion protein of CD4i antibody domain m36.4 with gp120SC (human | HIV-1 (clade B isolate)); assay: SPR
[5] = target: single-chain fusion protein of CD4i antibody domain m36.4 with gp140SC (human | HIV-1 (clade B isolate)); assay: SPR
[6] = target: single-chain fusion protein of CD4i scFv m9 with gp120SC (HIV-1 (clade B isolate)); assay: SPR
[7] = target: stabilized gp120SC with T257S+S375W mutations (HIV-1 (clade B isolate)); assay: SPR
[8] = target: truncated HIV-1 gp120MS (residues 83-492, intact variable loops) (HIV-1 (clade A isolate)); assay: SPR
[9] = target: truncated HIV-1 gp120SC (residues 83-492, intact variable loops) (HIV-1 (clade B isolate)); assay: SPR

truncated HIV-1 gp120MS (residues 83-492, intact variable loops) (domain or fragment)
stoichiometry N [1]: 2

truncated HIV-1 gp120SC (residues 83-492, intact variable loops) (domain or fragment)
stoichiometry N [2]: 2

two-domain human soluble CD4 (domain or fragment)
Kd [3]: 0.15 nM | Kd [4]: 0.73 nM | Kd [5]: 1.9 nM | Kd [6]: 1.8 nM | Kd [7]: 59 nM | Kd [8]: 0.21 nM | Kd [9]: 104 nM
